Test results published in the supplement of paper PMC9170038.

Tested on: MS2 coat protein
Test: apparent KD of MS2 coat protein; designed switch direction (-1 OFF switch, 1 ON switch): 1; higher = weaker reporter binding
Outline: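 Transcription of designed RNA switches on Illumina chips was done by stalled E. coli RNA polymerase. SNAP-549-labelled MS2 coat protein was then titrated in doubling steps from 0.7 or 1.5 nM to 3 µM, with steps of 0.8–1.5 h at the lowest and 10–20 min at the highest concentration. The per-design median over clusters of curve-fitted normalised fluorescence is reported as apparent KD.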

[1] = input ligand: microRNA oligo, concentration not stated
[2] = Eterna round: R95, input ligand: FMN 200 uM
[3] = Eterna round: R95, input ligand: microRNA oligo, concentration not stated
[4] = Eterna round: R95, input ligand: none

| Sequence | apparent KD of MS2 coat protein (input ligand: FMN 200 uM) [nM] | apparent KD of MS2 coat protein [1] [nM] | apparent KD of MS2 coat protein (input ligand: none) [nM] | apparent KD of MS2 coat protein [2] [nM] | apparent KD of MS2 coat protein [3] [nM] | apparent KD of MS2 coat protein [4] [nM] |
| --- | --- | --- | --- | --- | --- | --- |
| GCCGGACCGGAAGGAUAUGUUCCCGGUGCAGCGGGAGACAUGAGGAUCACCCAUGUACUAUAACGACAGAAGGUCCAACCAGCG [Eternabot solution 21] (Eterna round: R96, puzzle: Same State NG 2) | 18.7 | 16.4 | 22.5 |  |  |  |
| GACUAUCUAUCUCAGGAUAUCAUGUCAAAGACAUGAGGAUCACCCAUGUACCAGGAAACUGGUUAUGAGAAGGGAGAUAGAUAGA [Mat - Same State 2 - Mod - D44] (puzzle: Same State 2) |  |  |  | 130 | 58.1 | 991 |
| ACGCAGCUGGGUGAGGAUAUCGGUGGUAAAACAUGAGGAUCACCCAUGUCCGAAGCUCGGACUUCCGAGAAGGCGCCCAACUGCA [Ercelama] (puzzle: Same State 2) |  |  |  | 12.9 | 55.1 | 70.9 |
| GAUUAACAUGAGGAUCACCCAUGUCGUUAAAUGGGAGGAUAUACGUGGACCGUAGUCCGCGUAGAAGGCCUAAUUG [Mat - Same State 1 - Mod of JL - D22] (puzzle: Same State 1) |  |  |  |  | 101 |  |
| AACGGCAGAUGAGGAUAUACUUGCCAUGCGAGCACGCUCGCUACAUGAGGAUCACCCAUGUAUGGGUAGAAGGCAUCAUGAUAC [Eternabot solution 39] (Eterna round: R96, puzzle: Same State NG 2) | 89.6 | 102 | 243 |  |  |  |
| AGAGAACAUGAGGAUCACCCAUGUGAGAGGGAUGUAGGAUAUGUAAGGAAGAAAGAAGGAACAGAAGGACAAAGAG [JR_SS!_Sub066] (puzzle: Same State 1) |  |  |  | 50.5 | 78.5 | 70.7 |
| GGAAACUUGAGAGGAUAUGUAGAGGAUCACCCUACAGAAGGCUCUUUUGAGAGGAUAUGUAGAGGAUCACCCUACAGAAGGCUC [pwkr ssNG DX.14] (Eterna round: R96, puzzle: Same State NG 1) | 30.7 | 26.5 | 87 |  |  |  |
| UGUUGUAUUACAGGAUAUCUAUUAUUUUGAUUUAGAGAAGGGUAUUCACAUGAGGAUCACCCAUGUAUAUACGAGGAAGUUGUG [JMF's solution 22] (Eterna round: R96, puzzle: Same State NG 1) |  | 34.4 |  |  |  |  |
| AGAGGAGGAGCAGGAUAUUCGAAGAAGGACGUGGAAGAAGGGUUCAUGCGAUGACAUGAGGAUCACCCAUGUACCGCGCGAUGA [AK SSNG1-V2-13] (Eterna round: R96, puzzle: Same State NG 1) | 145 | 115 | 130 |  |  |  |
| GCCAUCGAGUGAGGAUAUGGCACCGAAACGGUGCCAGAAGGCAUGUCAAUUGACAUGAGGAUCACCCAUGUAUUAUCGAUGGCA [Mat - Same State NG 1 - JL mod - D87] (Eterna round: R96, puzzle: Same State NG 1) | 154 | 726 | 1690 |  |  |  |
| GUACAUAUUAUAGGAUAUCACGUCGAAUAGACGUGAGAAGGAUAAUCCCACAUGAAUAUUAAUACAUGAGGAUCACCCAUGUAC [SSNG1/18-A1] (Eterna round: R96, puzzle: Same State NG 1) | 42 | 49.7 | 49.2 |  |  |  |
| GCGAGUGCCACAGGAUAUUCGGCUGUUUCGCUCGAAGAAGGGUGCCGCAUGCAAUAAAGAAAACAUGAGGAUCACCCAUGUGAA [Uszavege] (Eterna round: R96, puzzle: Same State NG 1) | 527 | 217 | 418 |  |  |  |
| ACAUGAAAUUGAGGAUAUUUUGUACCUACAUGUGACAUGAGGAUCACCCAUGUGGUAAGUAUAAGAGAGAAGGCAAAGAUAUGU [Equivalence 6 - Jieux - Same State NG 2] (Eterna round: R96, puzzle: Same State NG 2) | 30 | 29.2 | 45.1 |  |  |  |
| UUUUUUUUGACGAGACAAGCUUUUUGAUCACAUGAGGAUCACCCAUGUCUCGUCUUAUUUUUUUUUUUUUUUUUUUU [BA Sensor hsa-mir-208a - 2 - 2] (puzzle: Sensor for hsa-mir-208a) |  |  |  | 17.4 | 9.64 | 7.54 |
| GCGAGCGUACUUGCUACAUGAGGAUCACCCAUGUUUUAUGGACAGGAUAUGGUACCGUUUCGGUACCAGAAGGGUCCACAUGUA [JL SSNG3 3.84] (Eterna round: R96, puzzle: Same State NG 3) | 130 | 579 | 453 |  |  |  |
| UCAACUUUUUUUAGUGUGUUGCCAGGUUAACAUGAGGAUCACCCAUGUAAAGUAUAGUGGGAUUAAGUUCGUCUUAA [JR_SHM208A_Sub072] (puzzle: Sensor for hsa-mir-208a) |  |  |  | 77.2 | 83.6 | 93.9 |

| Sequence | apparent KD of MS2 coat protein (input ligand: FMN 200 uM) [nM] | apparent KD of MS2 coat protein [1] [nM] | apparent KD of MS2 coat protein (input ligand: none) [nM] | apparent KD of MS2 coat protein [2] [nM] | apparent KD of MS2 coat protein [3] [nM] | apparent KD of MS2 coat protein [4] [nM] |
| --- | --- | --- | --- | --- | --- | --- |
| GCCGCGUUUCGCGCCUACAUGAGGAUCACCCAUGUUUGUGGGCAGGAUAUCGUCCGCUCUGCGGGCGAGAAGGGCUGUUGUGGU [salish99_SSNG3_R04_026] (Eterna round: R96, puzzle: Same State NG 3) |  | 40.9 |  |  |  |  |
| AACAAUCUAUCUGAGGAUAUCAUGAAAUAAACAUGAGGAUCACCCAUGUGCAGGAAAACUGCAUAUGAGAAGGUAGAUAGAUUGA [salish99_ss2_r3_050] (puzzle: Same State 2) |  |  |  | 176 | 140 | 218 |
| UGGAUCUAGGCUUGCCUGGGUCCAUGUUGACAUGAGGAUCACCCAUGUGUAUUUUUUUUGCUUUUUGUUUGUCAACA [JL A Humble Attempt mod 4] (puzzle: Sensor for hsa-mir-208a) |  |  |  | 31.5 | 16.7 | 34 |
| UGAGCCGGCACUGAGGAUAUUCAUAAUAAAACAUGAGGAUCACCCAUGUAGGCCAGAAGGCCUUGGGAGAAGGCAGGUCGGCUCU [Mat - Same State 2 - Mod of UCT - D70] (puzzle: Same State 2) |  |  |  | 13.8 | 142 | 292 |
| AGAUCAUGACGAGGAUAUGGUACAUGAGGAUCACCCAUGUAUGUAUCAUAACGCGAAUGACGAAACCAGAAGGCGUCGUGGUCA [JL SSNG2 1.11] (Eterna round: R96, puzzle: Same State NG 2) | 10.2 | 14.6 | 14.9 |  |  |  |
| CUUUUUAGUGCAGGAUAUGAUCAACAUGAGGAUCACCCAUGUGGCGUUGUGAGUAGGGAGAGUGAUCAGAAGGGCGUCUCCUCG [SS-NG2-LRO10] (Eterna round: R96, puzzle: Same State NG 2) | 40.7 | 55.7 | 39.2 |  |  |  |
| GGUCCAGCCUGAGCUGGACAAAAGCAUGUACAUGAGGAUCACCCAUGUUCAUGUACAAGCUUUUUGCUCGUCUUACC [salish99_208a_r3_090x] (puzzle: Sensor for hsa-mir-208a) |  |  |  | 570 | 15.9 | 823 |
| AAAAGACAAAGAAAACAUGAGGAUCACCCAUGUGGCGUGACACAGGAUAUCCACGCUACAUUGCAGGAGAAGGGUGACAUGCAC [Ensora] (Eterna round: R96, puzzle: Same State NG 3) | 484 | 273 | 383 |  |  |  |
| GCUCGAUGAGCGUUUUACAUGAGGAUCACCCAUGUUCGUGGGCAGGAUAUUUACGUGCGGAGUGUAGAGAAGGGCCCAUCGAGC [SameState NG3 #68] (Eterna round: R96, puzzle: Same State NG 3) | 71.3 | 391 | 674 |  |  |  |
| UGGCUCAGACGAGGAUAUAUGUGGUCACAUGAGGAUCACCCAUGUCUCGAGCUUCGGCUCGAGGCAUAGAAGGUGUCUGAGCCU [SSNG2/5-C3] (Eterna round: R96, puzzle: Same State NG 2) | 132 | 33.5 | 23.1 |  |  |  |
| AUCCGGAAGCGAGGAUAUGCAGAGGAUCACCCUGCAGAAGGCGCGAUCGCGAGGAUAUGCAGAGGAUCACCCUGCAGAAGGCGC [pwkr ssNG DX.31] (Eterna round: R96, puzzle: Same State NG 1) | 15.5 | 20.3 | 25.1 |  |  |  |
| AAUAUACAUGAGGAUCACCCAUGUUAGUAAAUGACAGGAUAUCGAAUAAAUAAAUAAUAACGAGAAGGGUCUAAUA [JMF's solution 3] (puzzle: Same State 1) |  |  |  | 15.9 | 30.3 | 20.8 |
| GUUAAACAUGAGGAUCACCCAUGUAAUAUAAUGGGAGGAUAUCUGAAUUAAUUAAAUUAAGGAGAAGGCCUAAUUG [Mat - Same State 1 - Mod of Eli - D52] (puzzle: Same State 1) |  |  |  | 42 | 181 | 255 |
| GCCAACUAAUGAGGAUAUGGCACCUUAUUGGUGCCAGAAGGCAUGUCAAUUGACAUGAGGAUCACCCAUGUAUUAUAGUUGGCG [salish99_SSNG1_r04_601] (Eterna round: R96, puzzle: Same State NG 1) |  | 438 |  |  |  |  |
| UCUUGGUUUUUGCUCGUUUUUUGUGUUGAACAUGAGGAUCACCCAUGUAUUGUACGGUCCGGUUUAGUAAUGGUCCG [JMF 11] (puzzle: Sensor for hsa-mir-208a) |  |  |  | 24.8 | 15.1 | 25 |
